Assay results from IntAct's records for PubMed 9830048.

B1: Synaptotagmin-1 (Rattus norvegicus (Rat)), P21707 (parent)
chain: MVSASHPEALAAPVTTVATLVPHNATEPASPGEGKEDAFSKLKQKFMNELHKIPLPPWALIAIAIVAVLLVVTCCFCVCKKCLFKKKNKKKGKEKGGKNAINMKDVKDLGKTMKDQALKDDDAETGLTDGEEKEEPKEEEKLGKLQYSLDYDFQNNQLLVGIIQAAELPALDMGGTSDPYVKVFLLPDKKKKFETKVHRKTLNPVFNEQFTFKVPYSELGGKTLVMAVYDFDRFSKHDIIGEFKVPMNTVDFGHVTEEWRDLQSAEKEEQEKLGDICFSLRYVPTAGKLTVVILEAKNLKKMDVGGLSDPYVKIHLMQNGKRLKKKKTTIKKNTLNPYYNESFSFEVPFEQIQKVQVVVTVLDYDKIGKNDAIGKVFVGYNSTGAELRHWSDMLANPRRPIAQWHTLQVEEEVDAMLAVKK

Variants of: B1
Conditions: with cac1b_rat Cacna1b

Variant	effect of a mutation on the interaction
MVSASHPEALAAPVTTVATLVPHNATEPASPGEGKEDAFSKLKQKFMNELHKIPLPPWALIAIAIVAVLLVVTCCFCVCKKCLFKKKNKKKGKEKGGKNAINMKDVKDLGKTMKDQALKDDDAETGLTDGEEKEEPKEEEKLGKLQYSLDYDFQNNQLLVGIIQAAELPALDMGGTSDPYVKVFLLPDKKKKFETKVHRKTLNPVFNEQFTFKVPYSELGGKTLVMAVYDFDRFSKHDIIGEFKVPMNTVDFGHVTEEWRDLQSAEKEEQEKLGDICFSLRYVPTAGKLTVVILEAKNLKKMDVGGLSDPYVKIHLMQNGKRLKKAATTIKKNTLNPYYNESFSFEVPFEQIQKVQVVVTVLDYDKIGKNDAIGKVFVGYNSTGAELRHWSDMLANPRRPIAQWHTLQVEEEVDAMLAVKK [K326A;K327A]	decreasing interaction

Variants of: B1
Conditions: with ap2a2_rat Ap2a2, P18484
Chain of ap2a2_rat Ap2a2, P18484 (P18484 whole entry): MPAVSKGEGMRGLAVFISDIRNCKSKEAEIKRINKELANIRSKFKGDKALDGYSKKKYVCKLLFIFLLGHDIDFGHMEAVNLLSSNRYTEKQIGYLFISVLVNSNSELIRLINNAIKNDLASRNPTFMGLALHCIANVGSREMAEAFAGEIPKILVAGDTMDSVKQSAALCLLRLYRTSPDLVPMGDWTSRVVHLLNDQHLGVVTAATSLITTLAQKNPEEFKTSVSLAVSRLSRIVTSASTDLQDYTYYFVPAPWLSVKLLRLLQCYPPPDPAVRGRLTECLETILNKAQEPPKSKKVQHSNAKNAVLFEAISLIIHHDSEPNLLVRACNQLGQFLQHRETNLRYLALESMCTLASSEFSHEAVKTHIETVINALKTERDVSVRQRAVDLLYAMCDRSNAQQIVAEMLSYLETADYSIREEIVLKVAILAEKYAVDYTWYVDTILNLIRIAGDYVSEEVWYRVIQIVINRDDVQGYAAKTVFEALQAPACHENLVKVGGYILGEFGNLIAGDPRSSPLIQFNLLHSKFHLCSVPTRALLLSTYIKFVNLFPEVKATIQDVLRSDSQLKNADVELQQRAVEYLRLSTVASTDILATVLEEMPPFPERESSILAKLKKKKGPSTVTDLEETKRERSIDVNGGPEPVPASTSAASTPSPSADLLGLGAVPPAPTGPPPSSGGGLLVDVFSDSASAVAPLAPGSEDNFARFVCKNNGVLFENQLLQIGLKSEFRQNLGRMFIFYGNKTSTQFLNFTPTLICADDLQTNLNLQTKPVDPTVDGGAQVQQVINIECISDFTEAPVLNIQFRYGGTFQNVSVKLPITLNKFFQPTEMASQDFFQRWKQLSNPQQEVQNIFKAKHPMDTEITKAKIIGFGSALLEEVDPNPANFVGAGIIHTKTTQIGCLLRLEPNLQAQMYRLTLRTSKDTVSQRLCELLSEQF

Variant	effect of a mutation on the interaction
MVSASHPEALAAPVTTVATLVPHNATEPASPGEGKEDAFSKLKQKFMNELHKIPLPPWALIAIAIVAVLLVVTCCFCVCKKCLFKKKNKKKGKEKGGKNAINMKDVKDLGKTMKDQALKDDDAETGLTDGEEKEEPKEEEKLGKLQYSLDYDFQNNQLLVGIIQAAELPALDMGGTSDPYVKVFLLPDKKKKFETKVHRKTLNPVFNEQFTFKVPYSELGGKTLVMAVYDFDRFSKHDIIGEFKVPMNTVDFGHVTEEWRDLQSAEKEEQEKLGDICFSLRYVPTAGKLTVVILEAKNLKKMDVGGLSDPYVKIHLMQNGKRLKKAATTIKKNTLNPYYNESFSFEVPFEQIQKVQVVVTVLDYDKIGKNDAIGKVFVGYNSTGAELRHWSDMLANPRRPIAQWHTLQVEEEVDAMLAVKK [K326A;K327A]	decreasing interaction
